According to US20260055207A1 (NATIONAL UNIVERSITY CORPORATION YAMAGATA UNIVERSITY, published 2026):

Molecular target: T1, HER2-hFc (UniProt P04626 23-652)
T1 construct: Immobilized on a CM5 sensor chip; also called HER2 immobilized on a sensor chip; not shown: hFc part
Assay: SPR (Biacore T200), HER2-hFc immobilized on CM5 chip, antibody flowed at 1-16 nmol/l
Experimental: It was examined using a surface plasmon resonance method whether the Herceptin-Okt3 bispecific antibody obtained in Example 1(6) above could maintain a binding to Her2. Specifically: the Herceptin-Okt3 bispecific antibody was allowed to flow over HER2 immobilized on a sensor chip at a predetermined flow rate, and measurement was conducted using an intermolecular interaction analyzer. The Herceptin-Okt3 bispecific antibody purified in Example 1(6) above was diluted with 1×PBS-Tween20 to 1 nmol/l. 2 nmol/l. 4 nmol/l. 8 nmol/l, and 16 nmol/l. After the dilution, a surface plasmon resonance measuring apparatus (Biacore T200, manufactured by Cytiva) was used to measure the binding strength by allowing the diluted solution containing the Herceptin-Okt3 bispecific antibody to flow over HER2-hFc immobilized on a CM5 sensor chip (manufactured by GE Healthcare).
In FIG. 7, the horizontal axis indicates the time (minute), and the vertical axis indicates the response unit (RU).

B1: Herceptin-OKT3 bispecific antibody (bispecific antibody)
heavy 1: not shown
light 1: DIQMTQSPSSLSASVGDRVTITCSASSSVSYMNWYQQTPGKAPKRWIYDTSKLASGVPSRFSGSGSGTDYTFTISSLQPEDIATYYCQQWSSNPFTFGQGTKLQITRTVA
heavy 2: not shown
light 2: not shown
  Kd: 2.25 nM
